According to publication PMC6258048:
Like-named read-outs stand apart in the source and are kept apart here.

Columns and labels:
Test in all cases: EMSA
Tcf3 B-HLH domain (E47) = target: T1, Tcf3 B-HLH domain (E47) (UniProt P15806-2)
T1 sequence: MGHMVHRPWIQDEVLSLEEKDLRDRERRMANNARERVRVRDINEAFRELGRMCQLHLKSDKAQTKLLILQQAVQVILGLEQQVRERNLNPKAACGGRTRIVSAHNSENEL

Tcf12 B-HLH domain = Tcf12 B-HLH domain (UniProt Q61286)
[1] = target: Tcf4 B-HLH domain;Ascl1 B-HLH domain (;, UniProt Q60722;Q02067 ;, |)
Ascl1 B-HLH domain = target: T2, Ascl1 B-HLH domain (UniProt Q02067)
T2 sequence: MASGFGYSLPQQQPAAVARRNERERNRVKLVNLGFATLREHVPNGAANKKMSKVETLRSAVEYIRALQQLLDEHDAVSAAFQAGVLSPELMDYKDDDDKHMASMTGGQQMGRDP

[2] = target: Tcf12 B-HLH domain;Ascl1 B-HLH domain (;, UniProt Q61286;Q02067 ;, |)
Tcf4 B-HLH domain = Tcf4 B-HLH domain (UniProt Q60722)
[3] = target: T3, Tcf3 B-HLH domain (E47);Ascl1 B-HLH domain (;, UniProt P15806-2;Q02067 ;, |)
T3 sequence 1: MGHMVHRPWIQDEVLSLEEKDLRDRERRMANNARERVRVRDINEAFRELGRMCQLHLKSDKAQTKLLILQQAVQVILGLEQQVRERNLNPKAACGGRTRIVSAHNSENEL
T3 sequence 2: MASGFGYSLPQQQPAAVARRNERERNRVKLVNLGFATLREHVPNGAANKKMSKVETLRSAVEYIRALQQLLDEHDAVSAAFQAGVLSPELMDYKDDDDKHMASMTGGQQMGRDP

[4] = target: T3, Tcf3 B-HLH domain (E47);Ascl1 B-HLH …; remark: listed apart in the source

Binder	binding signal (Tcf3 B-HLH domain (E47)) [fold binding vs N1]	binding signal (Tcf12 B-HLH domain) [fold binding vs N1]	binding signal [1] [fold binding vs N1]	binding signal (Ascl1 B-HLH domain) [fold binding vs N1]	binding signal [2] [fold binding vs N1]	binding signal (Tcf4 B-HLH domain) [fold binding vs N1]	binding signal [3] [fold binding vs N1]	binding signal [4]
CGCAG|GTG 28-mer 5caC(a)|5caC(b) (dsDNA, 5caC at C11 of strand 1 and C17 of strand 2) DNA 1: CTGACCGATACGCAGGTGCCTGACTGAC DNA 2: GTCAGTCAGGCACCTGCGTATCGGTCAG	~2	~4	~6	~6	~10	~3	~10	
weak E-box CGCAA|ATG 28-mer C(a)|C(b) (dsDNA) DNA 1: CTGACCCATACGCAAATGTCTGACTGAC DNA 2: GTCAGTCAGACATTTGCGTATGGGTCAG								~100 fold weaker than N1
weak E-box CGCAA|ATG 28-mer 5caC(a)|5caC(b) (dsDNA, 5caC at C11 of strand 1 and C17 of strand 2) DNA 1: CTGACCCATACGCAAATGTCTGACTGAC DNA 2: GTCAGTCAGACATTTGCGTATGGGTCAG								~10 fold binding vs N8
